The record followed here is patent publication US20110104715A1 (published 2011).

For test [1], the target named is T1, APPΔC31 (N-terminal 664 amino acids of APP695) (human, UniProt P05067 18-664).
T1 construct: Used both for the deletion construct and for the product of caspase cleavage of APP at Asp664; also called APPdeltaC31; C-terminal truncated APP
In words: co-immunoprecipitation (anti-FLAG M2) from co-transfected 293T cells, western blot with 5A3/1G7. On the technique in general: In western blotting, separated proteins are transferred to a membrane and probed.

The target in test [2] is T2, Wild-type human APP695 (β-amyloid precursor protein) (human, UniProt P05067-4 18-695).
T2 construct: also called full-length APP
In words: co-immunoprecipitation with anti-FLAG M2 from co-transfected 293T cells, densitometry of the APP band.

Test [3] deals with T2, Wild-type human APP695 (β-amyloid …). In words: co-immunoprecipitation with anti-FLAG M2 from co-transfected 293T cells, western blot for APP with 5A3/1G7.

B1: FLAG-tagged catalytic mutant caspase-8 (C360A) (enzyme, UniProt Q14790 1-479, looked up)
chain: MDFSRNLYDIGEQLDSEDLASLKFLSLDYIPQRKQEPIKDALMLFQRLQEKRMLEESNLSFLKELLFRINRLDLLITYLNTRKEEMERELQTPGRAQISAYRVMLYQISEEVSRSELRSFKFLLQEEISKCKLDDDMNLLDIFIEMEKRVILGEGKLDILKRVCAQINKSLLKIINDYEEFSKERSSSLEGSPDEFSNGEELCGVMTISDSPREQDSESQTLDKVYQMKSKPRGYCLIINNHNFAKAREKVPKLHSIRDRNGTHLDAGALTTTFEELHFEIKPHDDCTVEQIYEILKIYQLMDHSNMDCFICCILSHGDKGIIYGTDGQEAPIYELTSQFTGLKCPSLAGKPKVFFIQAAQGDNYQKGIPVETDSEEQPYLEMDLSSPQTRYIPDEADFLLGMATVNNCVSYRNPAEGTWYIQSLCQSLRERCPRGDDILTILTEVNYEVSNKDDKKNMGKQMPQPTFTLRKKLVFPSD
notes: Printed as 'caspase-S(C360A)', read as caspase-8; FLAG tag present; also called C8; caspase-S(C360A)
As for B1, the binding result in test [1] is listed as “no binding”. The “intensity relative to the other caspases tested” value in test [2] is roughly 200%. Moreover, the “quantitative densitometry intensity of co-immunoprecipitated APP” value (from here on “quantitative densitometry intensity”) in test [3] was determined as 2.2.

B2: FLAG-tagged catalytic mutant caspase-9 (C287A) (enzyme, UniProt P55211 1-416, looked up)
chain: MDEADRRLLRRCRLRLVEELQVDQLWDALLSRELFRPHMIEDIQRAGSGSRRDQARQLIIDLETRGSQALPLFISCLEDTGQDMLASFLRTNRQAAKLSKPTLENLTPVVLRPEIRKPEVLRPETPRPVDIGSGGFGDVGALESLRGNADLAYILSMEPCGHCLIINNVNFCRESGLRTRTGSNIDCEKLRRRFSSLHFMVEVKGDLTAKKMVLALLELAQQDHGALDCCVVVILSHGCQASHLQFPGAVYGTDGCPVSVEKIVNIFNGTSCPSLGGKPKLFFIQAAGGEQKDHGFEVASTSPEDESPGSNPEPDATPFQEGLRTFDQLDAISSLPTPSDIFVSYSTFPGFVSWRDPKSGSWYVETLDDIFEQWAHSEDLQSLLLRVANAVSVKGIYKQMPGCFNFLRKKLFFKTS
notes: FLAG tag present; also called C9
As to B2, the “quantitative densitometry intensity” value in test [3] was 1.1.

B3: FLAG-tagged catalytic mutant caspase-7 (C186A) (enzyme, UniProt P55210 1-303, looked up)
chain: MADDQGCIEEQGVEDSANEDSVDAKPDRSSFVPSLFSKKKKNVTMRSIKTTRDRVPTYQYNMNFEKLGKCIIINNKNFDKVTGMGVRNGTDKDAEALFKCFRSLGFDVIVYNDCSCAKMQDLLKKASEEDHTNAACFACILLSHGEENVIYGKDGVTPIKDLTAHFRGDRCKTLLEKPKLFFIQAARGTELDDGIQADSGPINDTDANPRYKIPVEADFLFAYSTVPGYYSWRSPGRGSWFVQALCSILEEHGKDLEIMQILTRVNDRVARHFESQSDDPHFHEKKQIPCVVSMLTKELYFSQ
notes: FLAG tag present; also called C7
For B3, in test [3], the “quantitative densitometry intensity” value worked out at 1.

B4: FLAG-tagged catalytic mutant caspase-6 (C163A) (enzyme, UniProt P55212 1-293, looked up)
chain: MSSASGLRRGHPAGGEENMTETDAFYKREMFDPAEKYKMDHRRRGIALIFNHERFFWHLTLPERRGTCADRDNLTRRFSDLGFEVKCFNDLKAEELLLKIHEVSTVSHADADCFVCVFLSHGEGNHIYAYDAKIEIQTLTGLFKGDKCHSLVGKPKIFIIQAARGNQHDVPVIPLDVVDNQTEKLDTNITEVDAASVYTLPAGADFLMCYSVAEGYYSHRETVNGSWYIQDLCEMLGKYGSSLEFTELLTLVNRKVSQRRVDFCKDPSAIGKKQVPCFASMLTKKLHFFPKSN
notes: FLAG tag present; also called C6
Regarding B4, the “quantitative densitometry intensity” value in test [3] stood at 1.2.
